According to paper PMC11376372:

How the values were obtained:
[1] = molecular target: oxidized wheat protein disulfide isomerase (wPDI^O) (wheat) (UniProt P52589); test: ITC; MicroCal VP-ITC; 0.3 mM 1Dx5-NTD^AAA titrated into 70 uM wPDI, 27 additions of 10 uL; 0.5 mM GSSG in both buffers (oxidized wPDI); single-site binding model
[2] = molecular target: reduced wheat protein disulfide isomerase (wPDI^R) (wheat) (UniProt P52589); test: ITC; MicroCal VP-ITC; 0.3 mM 1Dx5-NTD^AAA titrated into 70 uM wPDI, 27 additions of 10 uL; 1 mM DTT in both buffers (reduced wPDI); single-site binding model

Kd [1]: 316 µM
Kd [2]: 2.59 µM
Substance: 1Dx5-NTD^AAA, triple mutant of the N-terminal domain of HMW glutenin subunit 1Dx5 in which all three cysteines were mutated into alanine (domain or fragment)
